Laboratory results reported in patent US7341836B2, “Modified cyclic nucleotide gated ion channels” (The Regents of the University of Colorado, priority 2001, dated 2008).

Legend:
[1] = test system: HEK-293 cells expressing CNG channels; test: Forskolin-induced cAMP accumulation monitored by Ca2+ influx (fura-2) through expressed CNG channels; type: cell-based, human
Experimental: Next, experiments were conducted to assess the ability of each channel construct to detect increases in local cAMP concentration. Changes in cAMP concentration were detected using fura-2 to monitor Ca^2+ influx through CNG channels, as described in the Examples. Ca^2+ influx induced by different concentrations of forskolin, an AC activator, in the presence of 100 μM IBMX, a nonselective PDE inhibitor was measured. This approach allowed comparisons to be made between the cAMP sensitivities of the different channels to changes in cAMP, regardless of variations in expression levels between experiments. In HEK-293 cells expressing the WT channel, addition of forskolin was followed by a brief delay and an increase in Ca^2+ influx (See, FIG. 7, Panel A). The delay decreased and the rate of Ca^2+ influx increased in a dose-dependent manner. Neither effect was saturated at 50 μM forskolin. In cells expressing the E583M channel, addition of forskolin was also followed by a brief delay and an increase in Ca^2+ influx (FIG. 7, Panel B). As with the WT channel, the delay and the initial rate of Ca^2+ influx were dose-dependent. […] In cells expressing the Δ61-90/C460W/E583M channel, addition of forskolin caused similar increases in Ca^2+ influx as the E583M channel, including saturation of the delay and rate of influx at 20 μM (compare FIG. 7, Panel B with FIG. 7, Panel D). The increased response of the modified channels to forskolin treatment is consistent with the apparent cAMP affinities measured in excised patches in the absence of Ca^2+-CaM (C460W/E583M>E583M˜Δ61-90/C460W/E583>WT channels). There are several factors that may have contributed to the apparent lack of a Ca^2+-CaM effect on the channels.
Briefly, HEK-293 were maintained in MEM (Life Technologies Inc.) supplemented with 26.2 mM NaHCO3, 10% (v/v) fetal bovine serum (Gemini), penicillin (50 μg/mL), and streptomycin ([…]), pH 7.0, at 37° C. in a humidified atmosphere of 95% air and 5% CO2. Cells were plated at ˜60% confluence in 100 mm culture dishes twenty-four hours prior to infection with the CNG-channel-encoding adenovirus constructs (multiplicity of infection=10 plaque forming units per cell). […] Twenty-four hours post-infection cells were detached with phosphate-buffered saline containing 0.03% EDTA, resuspended in serum-containing medium, and assayed within 12 hours.

PDE III = conditions: cited from earlier work
[2] = test system: PDE activity in GH4C1 cells; test: Effect of PDE inhibitors, forskolin and VIP on cAMP levels (Ca2+ influx through CNG channels); type: cell-based, rat; conditions: C460W/E583M channels
Experimental: To further test the utility of this approach, PDE activity in excitable GH4C1 pituitary cells was examined. In all of the experiments shown (See, FIGS. 13-14, and Table 2), 1 μM nimodipine was added at time zero to block Ca^2+ influx though voltage-gated Ca^2+ channels (triggered by membrane depolarization due to Ca^2+ and Na^+ influx through CNG channels). […] FIGS. 13 and 14 each depict experiments done on a single batch of cells. As before, similar results were obtained on three other batches. In the experiments that produced the data shown in Table 2, cAMP concentrations were monitored using Ca^2+ influx through C460W/E583M channels. […] Either 100 μM IBMX or vehicle (-IBMX; control) were added at time zero. Then, 50 μM forskolin were added at 180 seconds d(ΔF/F0)/dt, which is proportional to the Ca^2+ influx rate, was estimated as described in the Examples. Data are provided as mean±standard error. IBMX or vehicle was added at 60 seconds (first arrow in FIG. 13). Either 10 μM forskolin or 100 nM VIP were added at 240 seconds (second arrow in FIG. 13). In the absence of IBMX, large forskolin or VIP-induced increases in Ca^2+ influx were observed. […] This level of basal AC activity was quite different from that observed in HEK-293 cells (See, FIGS. 9 and 10). 1 μM nimodipine was added at time 0 to block endogenous voltage-gated Ca^2+ channels.
To identify the PDE family or families that regulate the local cAMP concentration in GH4C1 cells, cAMP accumulation was monitored in the presence and absence of PDE inhibitors (See, Table 2). Again, the high cAMP affinity C460W/E583M channels were used. PDE inhibitors were added at 60 s. Although the addition of IBMX alone triggered Ca^2+ influx, 10 μM forskolin were added at 240 s as a positive control for CNG channel activity. […] This PDE is likely to have a low Km for cAMP because it is capable of regulating cAMP at concentrations too low for the WT or Δ61-90/C460W/E583M channels to detect. Thus, it is contemplated that a Ca^2+-CaM stimulated PDE (type I) is primarily responsible for controlling basal cAMP signals in GH4C1 cells.
In addition, PDE activity was monitored using Δ61-90/C460W/E583M channels to detect changes in cAMP concentration (See, FIG. 14). PDE inhibitors and forskolin were added as described above. With this construct, it was not possible to observe changes in cAMP concentration due to inhibition of PDE activity alone. […] Inhibitors specific to other PDE types had no effect on the forskolin-induced Ca^2+ influx (data not shown). […] It is contemplated that Ca^2+ influx through the C460W/E583M channels was saturated at cAMP concentrations below the Km for this PDE. Thus, it is contemplated that there are two different PDE types that regulate local cAMP signals in GH4C1 cells: a low Km, 8-methoxymethyl-IBMX sensitive PDE (type I); and a high Km, RO-20-1724-, rolipram-sensitive PDE (type IV).
GH4C1 rat pituitary cells (ATCC) were maintained in 13 mL Ham's F-10 medium (Life Technologies) supplemented with 14.3 mM NaHCO3, 15% donor horse serum (Gemini), and 2.5% fetal bovine serum, pH 6.8, in 75 cm^2 flasks at 37° C. in a humidified atmosphere of 95% air and 5% CO2. Cells were split weekly (1:4) and washed with fresh medium twice weekly. Cells were plated at ˜60% confluence in 100 mm culture dishes twenty-four hours prior to infection with the CNG-channel-encoding adenovirus constructs (multiplicity of infection=50 plaque forming units per cell). Forty-eight hours post-infection cells were detached, resuspended in serum-containing medium, and assayed within 12 hours.
In this Example, experiments conducted to examine the response of excitable GH4C1 pituitary cells to stimulation by either forskolin or the hormone vasoactive intestinal peptide (VIP), in the presence of absence of PDE inhibitors are described. […]

[3] = test system: rat olfactory CNG channel α subunit; test: Excised inside-out patch recordings, cyclic nucleotide dose-response of CNG channel constructs; type: biochemical; conditions: for Imax^cGMP/Imax^cAMP: current at saturating cGMP divided by current at saturating cAMP
Experimental: As described in greater detail herein, the effects of modifications to CNG channels were assessed using the Hill equation, I/Imax=[cNMP]^N/([cNMP]^N+K1/2^N), where I/Imax is the fraction of maximal current, cNMP represents cyclic nucleotide, K1/2 is the concentration that gives half-maximal current, and N is the Hill coefficient, an index of cooperativity. I/Imax^cGMP/Imax^cAMP is the current induced by saturating cGMP divided by the current induced by saturating cAMP. Data (mean±standard deviation of three experiments) were obtained from excised membrane patches using standard patch clamp techniques.
To assess the cyclic nucleotide sensitivity of different CNG channel constructs, excised, inside-out patch recordings were made at room temperature (20-21° C.) using an Axopatch-200A patch clamp amplifier (Axon Instruments Inc.). Pipettes were pulled from borosilicate glass and heat polished. Pipettes were lowered onto the cells and gigaohm seals were formed. Patches were excised by shearing cells from the pipette with a jet of liquid. Ionic currents were elicited by 250 ms pulses to membrane potentials of +50 and −50 mV from a holding potential of 0 mV. Current records were sampled at five times the filter setting and stored on an IBM compatible computer. Records were corrected for errors due to series resistance (pipette resistance was 4.1 ±0.1 MΩ). Both the pipette and bath solutions contained (mM): 130 NaCl, 2 HEPES, 0.02 EDTA, and 1 EGTA, pH 7.6. Cyclic nucleotide-induced currents were obtained from the difference between currents in the presence and absence of cyclic nucleotides. Dose response curves for cAMP and cGMP were obtained at +50 and −50 mV in the same patch. The effects of the modifications were assessed using the Hill equation, I/Imax=[cNMP]^N/([cNMP]^N+K1/2^N), where I/Imax is the fraction of maximal current, cNMP represents cyclic nucleotide, K1/2 is the concentration that gives half-maximal current, and N is the Hill coefficient, an index of cooperativity. K1/2 and N for cAMP were 36±5 μM, 10±2 μM, 1.0±0.3 μM, and […] for WT, E583M, C460/E583M, and Δ61-90/C460W/E583M channels, respectively (See, Rich et al., J. Gen. Physiol. [2001], supra).
The cyclic nucleotide sensitivity of the C460W/E583M CNG channel was assessed in excised, inside-out patches as known in the art (See, Rich et al. [2001], supra). K1/2 and N were 1.1±0.3 μM and 2.1±0.4 at +50 mV; and 1.0±0.3 μM and 2.0 ±0.3 at −50 mV (n=11). With these values, the cAMP concentration could be calculated from currents measured in perforated patch experiments (Rich et al. Proc. Natl. Acad. Sci. [2001], supra).

Which “forskolin-induced increase in cAMP concentration averaged throughout the accessible cell volume” value [1] does the source give for `C=C[C@@]1(C)CC(=O)[C@]2(O)[C@@]3(C)[C@@H](O)CCC(C)(C)[C@@H]3[C@H](O)[C@H](OC(C)=O)[C@@]2(C)O1` [forskolin] here?
The value was 1 to 2 µM.

What about the “forskolin-induced increase in cAMP concentration measured using CNG channels” value ([1]; local, near plasma membrane) of the same molecule?
The value was greater than 25 µM.

With `C[C@@H]1C(=O)NC2=Nc3cccc(Cl)c3CN21` [Quazinone] as the molecule, how does the IC50 (PDE III) read?
The IC50 was 600 nM.

And the “d(ΔF/F0)/dt” value ([2]; basal cAMP, inhibitor concentration (μM))?
The value was 0 s⁻¹.

Which “cAMP accumulation and Ca2+ influx after AC stimulation” value ([2]; 10 μM forskolin or 100 nM VIP after IBMX or vehicle) does the source give for vasoactive intestinal peptide [VIP] here?
The value was “caused additional cAMP accumulation and Ca^2+ influx”.

B1: E583M: modified rat olfactory cyclic nucleotide-gated ion channel containing the E583M mutation, SEQ ID NO:5 (protein, listed as Rattus norvegicus)
chain: MMTEKSNGVKSSPANNHNHHPPPSIKANGKDDHRAGSRPQSVAADDDTSPELQRLAEMDTPRRGRGGFQRIVRLVGVIRDWANKNFREEEPRPDSFLERFRGPELQTVTTHQGDDKGGKDGEGKGTKKKFELFVLDPAGDWYYRWLFVIAMPVLYNWCLLVARACFSDLQRNYFVVWLVLDYFSDTVYIADLIIRLRTGFLEQGLLVKDPKKLRDNYIHTLQFKLDVASIIPTDLIYFAVGIHSPEVRFNRLLHFARMFEFFDRTETRTSYPNIFRISNLVLYILVIIHWNACIYYVISKSIGFGVDTWVYPNITDPEYGYLAREYIYCLYWSTLTLTTIGETPPPVKDEEYLFVIFDFLIGVLIFATIVGNVGSMISNMNATRAEFQAKIDAVKHYMQFRKVSKDMEAKVIKWFDYLWTNKKTVDEREVLKNLPAKLRAEIAINVHLSTLKKVRIFQDCEAGLLVELVLKLRPQVFSPGDYICRKGDIGKEMYIIKEGKLAVVADDGVTQYALLSAGSCFGEISILNIKGSKMGNRRTANIRSLGYSDLFCLSKDDLMEAVTEYPDAKKVLEERGREILMKMGLLDENEVAASMEVDVQEKLEQLETNMDTLYTRFARLLAEYTGAQQKLKQRITVLETKMKQNHEDDYLSDGINTPEPTAAE
For B1, which “forskolin concentration at which delay and rate of Ca2+ influx saturated” value ([1]; 100 μM IBMX, forskolin 0-50 μM) is on record?
Its value is 20 µM.

What about the “Imax^cGMP/Imax^cAMP” value ([3]; +50 mV) of the same molecule?
Its value is 0.40 ± 0.10.

And the “Imax^cGMP/Imax^cAMP” value ([3]; −50 mV)?
Its value is 0.35 ± 0.16.

And the “current elicited by saturating cGMP as % of the current elicited by saturating cAMP” value ([3]; excised patches)?
The value was roughly 40%.

B2: WT: wild-type rat olfactory cyclic nucleotide gated channel α subunit, amino acid sequence SEQ ID NO:8 (protein, listed as Rattus norvegicus)
chain: MMTEKSNGVKSSPANNHNHHPPPSIKANGKDDHRAGSRPQSVAADDDTSPELQRLAEMDTPRRGRGGFQRIVRLVGVIRDWANKNFREEEPRPDSFLERFRGPELQTVTTHQGDDKGGKDGEGKGTKKKFELFVLDPAGDWYYRWLFVIAMPVLYNWCLLVARACFSDLQRNYFVVWLVLDYFSDTVYIADLIIRLRTGFLEQGLLVKDPKKLRDNYIHTLQFKLDVASIIPTDLIYFAVGIHSPEVRFNRLLHFARMFEFFDRTETRTSYPNIFRISNLVLYILVIIHWNACIYYVISKSIGFGVDTWVYPNITDPEYGYLAREYIYCLYWSTLTLTTIGETPPPVKDEEYLFVIFDFLIGVLIFATIVGNVGSMISNMNATRAEFQAKIDAVKHYMQFRKVSKDMEAKVIKWFDYLWTNKKTVDEREVLKNLPAKLRAEIAINVHLSTLKKVRIFQDCEAGLLVELVLKLRPQVFSPGDYICRKGDIGKEMYIIKEGKLAVVADDGVTQYALLSAGSCFGEISILNIKGSKMGNRRTANIRSLGYSDLFCLSKDDLMEAVTEYPDAKKVLEERGREILMKEGLLDENEVAASMEVDVQEKLEQLETNMDTLYTRFARLLAEYTGAQQKLKQRITVLETKMKQNHEDDYLSDGINTPEPTAAE
With B2 as the molecule, how does the “Imax^cGMP/Imax^cAMP” value ([3]; +50 mV) read?
The value was 1.0.

And the “Imax^cGMP/Imax^cAMP” value ([3]; −50 mV)?
The value was 1.0.
